The supplement of paper PMC10567573
± gives the standard deviation.

Experiment: protein stability index of a GFP-peptide fusion (GPS, HEK-293T) (PSI 1-6); higher = more stable
[1] = treatment: DMSO, c terminus: a fixed tail appended
[2] = treatment: MLN4924 1 uM, 8 h, c terminus: a fixed tail appended
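Note: 24-mer peptide tiles fused after GFP, lentivirally expressed, FACS-sorted into six equal bins by GFP/DsRed ratio, decoded by Illumina sequencing, PSI is the read-weighted mean bin number.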

Row | Sequence | protein stability index [1] | protein stability index [2] | protein stability index (treatment: DMSO, c terminus: native) | protein stability index (treatment: MLN4924 1 uM, 8 h, c terminus: native)
1 | TRQLSLAVKDGLIVETLTVGCKGS [ZMYND11] | 3.17 ± 0.15 | 3.49 ± 0.26 |  | 
2 | TTLLRRYNIPHGPVVGSTRRLYEK [EMD] | 3.14 ± 0.16 | 3.25 ± 0.15 |  | 
3 | TTNVGRYPVGRFPSLHVVKVLLDC [FEM1A] | 2.52 ± 0.4 | 2.48 ± 0.27 |  | 
4 | TTPLQLAIIRERSSCVKILLDHNA [ASB7] | 2.26 ± 0.16 | 2.34 ± 0.22 |  | 
5 | TTSTLKAWLNEHRKNPYPTKGEKI [IRX6] | 3.13 ± 0.44 | 3.37 ± 0.16 |  | 
6 | TVAAETRAVIAWMEKIPFVLGGNL [CPXM2] | 2.56 ± 0.86 | 2.71 ± 0.6 |  | 
7 | TVEDLFYNIATRRKALKNPSEEYG [MLH1] | 3.02 ± 0.8 | 3.06 ± 0.1 |  | 
8 | TVEKPGGKKVAVVLMDTQGAFDSQ [ATL3] | 4.18 ± 0.13 | 4.16 ± 0.22 |  | 
9 | TVMEKCSDGWWRGSYNGQIGWFPS [NCK2] | 2.45 ± 0.51 | 2.26 ± 0.37 |  | 
10 | TVSTMYYLWMCSTLALLLNFLACL [SCAMP3] | 3.13 ± 0.22 | 3.03 ± 0.63 |  | 
11 | TVVEEPVDITPYLDQLDESLRDKV [INTS3] | 5.12 ± 0.16 | 5.03 ± 0.33 |  | 
12 | TVVPLDDATQEYKEKLQKCLEPLE [TRIM39] | 5.27 ± 0.13 | 5.22 ± 0.21 |  | 
13 | VAAACACGFTVAQIITSLVFHLPF [OR10K2] | 3.43 ± 0.54 | 3.42 ± 0.68 |  | 
14 | VAALREEQKVLSRLVESLSTQIRA [RASAL3] | 2.34 ± 0.35 | 2.38 ± 0.11 |  | 
15 | VAGMPTAYDLSSVIASGSSVGHNN [CARM1] | 3.86 ± 0.19 | 3.86 ± 0.23 |  | 
16 | VAREYYSEADASHCIQQILESVNH [CAMK2D] | 3.46 ± 0.17 | 3.37 ± 0.3 |  | 
17 | VASNSELVQSSRSEVTELRRVLQG [KRT16] | 4.33 ± 0.36 | 4.47 ± 0.27 |  | 
18 | VAYRSLGRFEQLGKTAASWCLHVN [FSD1] | 2.6 ± 0.6 | 2.2 ± 0.36 |  | 
19 | VCSSNKPAIVEAGGMQALGLHLTD [CTNNB1] | 4.04 ± 0.087 | 3.89 ± 0.16 |  | 
20 | VDDAYVRRMAAEATEWQKAGAPPP [SRPK2] | 4.52 ± 0.26 | 4.63 ± 0.16 |  | 
21 | VDEVSVSLRLWDTFGDHHKDRRFA [RHOBTB1] | 3.01 ± 0.1 | 3.08 ± 0.2 |  | 

Row | Sequence | protein stability index [1] | protein stability index [2] | protein stability index (treatment: DMSO, c terminus: native) | protein stability index (treatment: MLN4924 1 uM, 8 h, c terminus: native)
22 | VEINDLDPEVFKEMMRFIYTGRAP [SPOPL] | 2.36 ± 0.33 | 2.05 ± 0.28 |  | 
23 | VELGKQKKKYMPYNHQHKYFFLIG [FADS1] | 2.29 ± 0.94 | 3.12 ± 0.48 |  | 
24 | VELLLARKISVNAKDEDQWTALHF [RIPK4] | 2.91 ± 0.82 | 1.83 ± 0.4 |  | 
25 | VELLPPAPKGKGRKPAAGAQSAGT [BRD3] | 4.58 ± 0.3 | 4.87 ± 0.42 |  | 
26 | VELPMNSSNGNDNGNGKNGGLEHV [BNIP3L] | 5.25 ± 0.17 | 5.23 ± 0.22 |  | 
27 | VEPETRAVIRWMHSFNFVLSANLH [CPN1] | 3.1 ± 0.12 | 3.19 ± 0.27 |  | 
28 | VEVGDKTHWAVGVCRDSVSRKGEL [TRIM39] | 3.06 ± 0.15 | 3.2 ± 0.17 |  | 
29 | VHRGDGANPFQAYLDVDLTLTREQ [RTN2] | 3.88 ± 0.088 | 3.82 ± 0.25 |  | 
30 | VIGALLRFNQAILVSRHDPASRRR [LPCAT4] | 2.28 ± 0.22 | 2.36 ± 0.19 |  | 
31 | VKMALDIEIATYRKLLEGEESRIS [PRPH] | 2.61 ± 0.13 | 2.7 ± 0.39 |  | 
32 | VKNVVSGGFPIIRDQIFRYVHDPE [FBXO3] | 2.53 ± 0.31 | 2.63 ± 0.38 |  | 
33 | VKVPTTLAEYCVKTKAPAPDEGSD [CDC34] | 5.07 ± 0.43 | 4.97 ± 0.12 |  | 
34 | VLDILTEQREWVLKSSILIAMAVY [INTS3] | 2.57 ± 0.33 | 2.48 ± 0.61 |  | 
35 | VLKAHNEYRQKHGVPPLKLCKNLN [GLIPR2] | 2.92 ± 0.17 | 3.33 ± 0.18 |  | 
36 | VLQSVRELSRSRKLYGQRERVWAL [FCHSD1] | 2.06 ± 0.24 | 2.37 ± 0.25 |  | 
37 | VMRMLGQTPTKEELDAIIEEVDED [TNNC2] | 5.41 ± 0.28 | 5.34 ± 0.27 |  | 
38 | VNMYVSIVFFGLISFDRYYKIVKP [P2RY14] | 3.66 ± 0.41 | 3.06 ± 0.28 |  | 
39 | VPLWGQLLLFLVFVIVLFFIYHFM [EMD] | 2.41 ± 0.17 | 2.17 ± 0.47 |  | 
40 | VQFSHHVFLNLHTLKFYCLPDNYE [USP39] | 2.89 ± 0.61 | 3.04 ± 0.74 |  | 
41 | VQKDKYPEEFSLLKLQTKDGHRPE [SPATS1] | 4.64 ± 0.23 | 5 ± 0.33 |  | 
42 | VQLAQQQAALQKQQEVVVAGSSLP [ACBD3] | 4.12 ± 0.11 | 4.49 ± 0.26 |  | 

Row | Sequence | protein stability index [1] | protein stability index [2] | protein stability index (treatment: DMSO, c terminus: native) | protein stability index (treatment: MLN4924 1 uM, 8 h, c terminus: native)
43 | VQWKEPEEPNGQIQGYRVYYTMDP [PTPRD] | 3.3 ± 0.16 | 3.17 ± 0.23 |  | 
44 | VRELRIAFREFDRDRDGRITVAEL [CABP4] | 2.7 ± 0.49 | 2.98 ± 0.17 |  | 
45 | VRKANRIKECLSKGTFSDVTFKLD [RHOBTB1] | 3.33 ± 0.21 | 3.43 ± 0.19 |  | 
46 | VSEFLKVAEQVGIDKGDIPDLTQA [SNAP91] | 4.18 ± 0.45 | 4.13 ± 0.44 |  | 
47 | VSGDTSKLMKILQPQDVDLALDSG [RIPK4] | 4.57 ± 0.16 | 4.68 ± 0.32 |  | 
48 | VSNFLKERTGFSIRPVAGYLSPRD [TPH1] | 2.71 ± 0.33 | 2.95 ± 0.31 |  | 
49 | VSNMSGPSGEEEAKVGPGLPDGCQ [CBY2] | 5.46 ± 0.12 | 5.16 ± 0.16 |  | 
50 | VTKSPEKRSSLPRPSSILPPRRGV [MAP2] | 4.58 ± 0.16 | 4.72 ± 0.19 |  | 
51 | VTLRRGLRSRASRCRPRSLIDYKS [FAM189A2] | 2.12 ± 0.33 | 2.23 ± 0.39 |  | 
52 | VTNPHSSQWKDPALSQLICFCRES [GADD45A] | 2.5 ± 0.24 | 2.67 ± 0.33 |  | 
53 | VVKLLVSHGANVNHTTVTNSTPLR [FEM1B] | 2.25 ± 0.26 | 2.29 ± 0.27 |  | 
54 | VVPGDHLLEPEVADGGGAPPQGGC [KCNA3] | 5.37 ± 0.14 | 5.29 ± 0.12 |  | 
55 | VWFGGREHVLMFAKLALYPCASLL [TMEM175] | 2.77 ± 0.26 | 3.18 ± 0.27 |  | 
56 | VWSCEGCKAFFKRSIQGHNDYICP [ESR2] | 2.32 ± 0.16 | 2.15 ± 0.11 |  | 
57 | VWVLMDEDVRIFFYQSPYDSEQVP [NCF4] | 2.3 ± 0.71 | 2.33 ± 0.64 |  | 
58 | VYTNLSSYSPASASSGGAGAAVGT [JUNB] | 3.26 ± 0.29 | 3.49 ± 0.27 |  | 
59 | WEISDDYPSLQAMGWFNNEVGSMK [CRYBA1] | 3.19 ± 0.24 | 3.42 ± 0.38 |  | 
60 | WEQKVLVIVMTTRFEEGGRRKCGQ [PTPN9] | 2.28 ± 0.2 | 2.28 ± 0.34 |  | 
61 | WETIRSFKDEWTQLDMFYRNWALK [AASDHPPT] | 2.14 ± 0.13 | 2.08 ± 0.32 |  | 
62 | WKNTKKMGVGKASASDGSSFVVAR [GLIPR2] | 3.64 ± 0.27 | 3.71 ± 0.3 |  | 
63 | WKYILLGLADVEANYVIVRAYQYT [SLC35F2] | 2.77 ± 0.66 | 2.86 ± 0.26 |  | 

Row | Sequence | protein stability index [1] | protein stability index [2] | protein stability index (treatment: DMSO, c terminus: native) | protein stability index (treatment: MLN4924 1 uM, 8 h, c terminus: native)
64 | WLDPGHTAVAQAPPAVASSSLFDL [SERTAD1] | 3.33 ± 0.27 | 3.38 ± 0.097 |  | 
65 | WRFVLQRLVFLAAFVVYLETETLV [TSN] | 2.68 ± 0.54 | 3.66 ± 0.17 |  | 
66 | WSKTQVLDWISYQVEKNKYDASAI [ELF3] | 2.59 ± 0.2 | 2.48 ± 0.28 |  | 
67 | WYFWGETFQNSVFVATFLRYAVVL [SCD] | 3.37 ± 0.33 | 3.36 ± 0.85 |  | 
68 | YATLDLNAVKYVSNIKFCSFHPLQ [PDS5B] | 2.31 ± 0.68 | 2.18 ± 0.35 |  | 
69 | YAVEASTMAQHAEVLVKSNNLTDR [CARM1] | 4.16 ± 0.14 | 4.64 ± 0.34 |  | 
70 | YGYNNVVTIPAGATHILVRQQGNP [ADAMTS4] | 2.53 ± 0.13 | 2.72 ± 0.34 |  | 
71 | YHIYVALEEEIERNKESPVFAPVY [HMOX1] | 2.32 ± 0.28 | 3.03 ± 0.51 |  | 
72 | YIEMQTDPANCDYVIVSGAQRKEE [YJU2B] | 4.2 ± 0.2 | 4.57 ± 0.36 |  | 
73 | YIIIVPLKKSRGKFIKPWESPDEM [PTPRD] | 2.5 ± 0.45 | 3.02 ± 1.5 |  | 
74 | YKVKERLGTLKNPPKKKMKLMSG [LCOR] |  |  | 2.51 ± 0.41 | 3.27 ± 0.068
75 | YLSLLRMYLSPPSIHCLGPIKLEL [VPS39] | 3.26 ± 0.43 | 2.94 ± 0.16 |  | 
76 | YPVGRFPSLHVVKVLLDCGADPDS [FEM1A] | 2.12 ± 0.17 | 2.38 ± 0.51 |  | 
77 | YQDDPDLRFLLDQVQLGLRCCGAA [TSPAN10] | 2.56 ± 0.28 | 2.65 ± 0.22 |  | 
78 | YQSKGYNDDYYEESYFTTRTYGEP [EMD] | 2.78 ± 0.2 | 3.22 ± 0.29 |  | 
79 | YRVLLGHTLILMFIWFVCSLVYYG [SLC22A15] | 2.32 ± 0.53 | 2.33 ± 0.57 |  | 
80 | YTVLGDTLIDGGEHYWEVRYEPDS [FSD1] | 3.02 ± 0.2 | 2.97 ± 0.34 |  | 
81 | YVFYLAVGNYRLKEYEKALKYVRG [FIS1] | 2.79 ± 0.36 | 2.39 ± 0.58 |  | 
82 | YVGNLPPDIRTKDIEDVFYKYGAI [SRSF1] | 2.28 ± 0.35 | 2.43 ± 0.36 |  | 
83 | YVPEKVKKAEKKLEENPYDLDAWS [CSTF3] | 3.06 ± 0.62 | 3.26 ± 0.87 |  | 
84 | YYEMGIHCWDVAGAGIIVTEAGGV [IMPA1] | 2.21 ± 0.34 | 2.03 ± 0.37 |  | 
